Assay results from patent US20220348651A1 (Novartis, published 2022).
Values joined by “and” are separate entries in the source; they are usually repeats but may differ in a detail not shown here. Equal values may be shown once.

Key:
[1] = target: human FcγRIIIa, V158 (high affinity variant) on engineered Jurkat cells (human, UniProt P08637 17-254); assay: cell-based or functional assay
[2] = target: recombinant human ENTPD2 extracellular domain (residues 29-462) with C-terminal Avi-His6 tag (human, UniProt Q9Y5L3 29-462, biotinylated on the AviTag in the epitope binning assay); assay: cell-based or functional assay
recombinant human ENTPD2 extracellular domain (residues 29-462) with C-terminal Avi-His6 tag, sequence (Q9Y5L3 29-462): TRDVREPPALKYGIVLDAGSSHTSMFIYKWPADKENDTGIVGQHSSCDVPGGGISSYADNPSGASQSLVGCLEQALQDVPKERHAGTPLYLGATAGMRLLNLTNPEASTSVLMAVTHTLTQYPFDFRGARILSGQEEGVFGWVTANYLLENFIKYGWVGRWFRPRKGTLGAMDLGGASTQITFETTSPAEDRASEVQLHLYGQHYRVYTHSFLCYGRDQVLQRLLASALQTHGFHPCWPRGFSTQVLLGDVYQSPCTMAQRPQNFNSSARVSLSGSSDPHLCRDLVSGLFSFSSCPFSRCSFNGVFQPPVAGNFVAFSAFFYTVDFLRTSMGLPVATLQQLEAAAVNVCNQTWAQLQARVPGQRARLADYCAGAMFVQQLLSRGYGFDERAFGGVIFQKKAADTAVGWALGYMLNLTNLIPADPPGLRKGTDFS

human FcγRIIIa, V158 (high affinity variant) on engineered Jurkat cells, sequence (P08637 other isoform, or with tags, fused parts or gaps mutant limits assumed): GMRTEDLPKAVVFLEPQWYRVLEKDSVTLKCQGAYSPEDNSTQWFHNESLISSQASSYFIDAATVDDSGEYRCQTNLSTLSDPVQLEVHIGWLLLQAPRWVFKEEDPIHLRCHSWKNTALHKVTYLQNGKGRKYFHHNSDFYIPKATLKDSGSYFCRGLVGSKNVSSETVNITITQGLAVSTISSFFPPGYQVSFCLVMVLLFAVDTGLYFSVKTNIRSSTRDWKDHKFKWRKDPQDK

EC50, Jurkat FcγRIIIa V158 NFAT-luciferase reporter with RKO cells [1]: 17.3 nM and 2.55 µg/mL
IC50, ENTPD2 Biochemical Assay at 1 uM ATP [2]: 0.52 nM
B1: ANTI-HUMAN ENTPD2 MAB1 (antibody, human IgG1, kappa)
heavy: not shown
light: DIQLTQSPSSLSASVGDRVTITCSASSSVSYIHWFQQKPGKAPKLLIYSTSNLASGVPSRFSGSGSGTFFTLTISSLQPEDFATYFCHQWSSYPWTFGQGTKVEIKRTVAAPSVFIFPPSDEQLKSGTASVVCLLNNFYPREAKVQWKVDNALQSGNSQESVTEQDSKDSTYSLSSTLTLSKADYEKHKVYACEVTHQGLSSPVTKSFNRGEC
notes: humanized from mAb17; human IgG1, kappa; also called anti-ENTPD2 mAb1
